# Results from the supplement of paper PMC9112550, “Optimization of the antimicrobial peptide Bac7 by deep mutational scanning” (BMC Biology, 2022).
# Tested on: Escherichia coli TOP10
# Test: shrunken log2 fold change of peptide-encoding DNA abundance (4.5 h post-induction vs induction); higher = less antimicrobial activity (less host growth inhibition)
# Conditions: time post-induction: 4.5 h; library: site-saturation at positions 5, 18, 19, 20
# 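Also: peptides expressed intracellularly from a pBAD plasmid library in pooled LB shake-flask culture, induced with 0.3% L-arabinose, DNA abundance read by NGS, three biological replicates, DESeq2 with apeglm shrinkage.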
row,Sequence,shrunken log2 fold change
1,RRIRCRPPRLPRPRPRPVMQPRP,-0.166
2,RRIRQRPPRLPRPRPRPAQMPRP,-0.15
3,RRIRARPPRLPRPRPRPDVRPRP,0.0106
4,RRIRLRPPRLPRPRPRPERPPRP,0.157
5,RRIRYRPPRLPRPRPRPKISPRP,-0.134
6,RRIRQRPPRLPRPRPRPLQMPRP,0.122
7,RRIRVRPPRLPRPRPRPCHSPRP,-0.225
8,RRIRGRPPRLPRPRPRPIMPPRP,0.0639
9,RRIRGRPPRLPRPRPRPFQCPRP,-0.0282
10,RRIRNRPPRLPRPRPRPDNAPRP,-0.0737
11,RRIRSRPPRLPRPRPRPPTHPRP,0.197
12,RRIRNRPPRLPRPRPRPYNLPRP,0.00765
13,RRIRKRPPRLPRPRPRPMWDPRP,-0.0178
14,RRIRTRPPRLPRPRPRPNGRPRP,-0.0231
15,RRIRARPPRLPRPRPRPGCYPRP,-0.00374
16,RRIRTRPPRLPRPRPRPSILPRP,-0.781
17,RRIRQRPPRLPRPRPRPDLHPRP,0.00152
18,RRIRWRPPRLPRPRPRPCSKPRP,-0.0575
19,RRIRFRPPRLPRPRPRPIGGPRP,0.14
20,RRIRTRPPRLPRPRPRPWAIPRP,-0.205
21,RRIRFRPPRLPRPRPRPVWFPRP,-0.182
22,RRIRYRPPRLPRPRPRPYDWPRP,-0.886

row,Sequence,shrunken log2 fold change
1,RRIRWRPPRLPRPRPRPKPNPRP,0.367
2,RRIRYRPPRLPRPRPRPYDKPRP,-1.24
3,RRIRQRPPRLPRPRPRPLEGPRP,-0.0228
4,RRIRKRPPRLPRPRPRPLVCPRP,0.191
5,RRIRARPPRLPRPRPRPLGKPRP,0.237
6,RRIRQRPPRLPRPRPRPAMNPRP,-0.115
7,RRIRLRPPRLPRPRPRPNINPRP,-0.686
8,RRIRQRPPRLPRPRPRPREVPRP,4.11
9,RRIRVRPPRLPRPRPRPRIAPRP,0.0659
10,RRIRERPPRLPRPRPRPILWPRP,-0.161
11,RRIRARPPRLPRPRPRPMHGPRP,0.311
12,RRIRRRPPRLPRPRPRPKWPPRP,0.141
13,RRIRSRPPRLPRPRPRPKAKPRP,0.626
14,RRIRYRPPRLPRPRPRPEINPRP,0.0373
15,RRIRRRPPRLPRPRPRPHGHPRP,0.224
16,RRIRTRPPRLPRPRPRPWGGPRP,0.439
17,RRIRSRPPRLPRPRPRPSCVPRP,-0.152
18,RRIRHRPPRLPRPRPRPGVIPRP,-0.0357
19,RRIRERPPRLPRPRPRPSYAPRP,-0.176
20,RRIRKRPPRLPRPRPRPPRRPRP,1.04
21,RRIRYRPPRLPRPRPRPDHHPRP,-0.0423
22,RRIRIRPPRLPRPRPRPQYCPRP,-0.15

row,Sequence,shrunken log2 fold change
1,RRIRDRPPRLPRPRPRPQYAPRP,-0.101
2,RRIRHRPPRLPRPRPRPCWGPRP,-0.137
3,RRIRMRPPRLPRPRPRPYIHPRP,-0.262
4,RRIRWRPPRLPRPRPRPFWQPRP,-0.00499
5,RRIRDRPPRLPRPRPRPLNGPRP,-0.00962
6,RRIRKRPPRLPRPRPRPGRNPRP,-0.105
7,RRIRARPPRLPRPRPRPDFVPRP,0.205
8,RRIRCRPPRLPRPRPRPHERPRP,-0.0193
9,RRIRGRPPRLPRPRPRPPDFPRP,0.46
10,RRIRLRPPRLPRPRPRPQWMPRP,-0.0896
11,RRIRGRPPRLPRPRPRPPTPPRP,1.22
12,RRIRSRPPRLPRPRPRPVLRPRP,0.0904
13,RRIRYRPPRLPRPRPRPCWIPRP,-0.01
14,RRIRARPPRLPRPRPRPFYEPRP,-0.125
15,RRIRIRPPRLPRPRPRPPCQPRP,0.0801
16,RRIRVRPPRLPRPRPRPDDSPRP,0.13
17,RRIRTRPPRLPRPRPRPEKFPRP,-0.376
18,RRIRFRPPRLPRPRPRPDSCPRP,-0.011
19,RRIRCRPPRLPRPRPRPGEDPRP,-0.0369
20,RRIRQRPPRLPRPRPRPSWTPRP,-0.15
21,RRIRMRPPRLPRPRPRPKVFPRP,0.0743
22,RRIRSRPPRLPRPRPRPGRKPRP,0.133

row,Sequence,shrunken log2 fold change
1,RRIRYRPPRLPRPRPRPPVEPRP,-0.108
2,RRIRGRPPRLPRPRPRPRWSPRP,0.754
3,RRIRKRPPRLPRPRPRPLEHPRP,0.156
4,RRIRYRPPRLPRPRPRPFRWPRP,-0.14
5,RRIRSRPPRLPRPRPRPTNMPRP,-0.465
6,RRIRTRPPRLPRPRPRPWNTPRP,-0.0118
7,RRIRSRPPRLPRPRPRPHDCPRP,-0.0708
8,RRIRWRPPRLPRPRPRPLVYPRP,0.114
9,RRIRHRPPRLPRPRPRPTCWPRP,-0.0322
10,RRIRDRPPRLPRPRPRPRLCPRP,0.265
11,RRIRVRPPRLPRPRPRPGLVPRP,0.807
12,RRIRARPPRLPRPRPRPWSWPRP,0.109
13,RRIRCRPPRLPRPRPRPVCPPRP,0.0356
14,RRIRARPPRLPRPRPRPQGAPRP,0.191
15,RRIRLRPPRLPRPRPRPAKAPRP,0.271
16,RRIRSRPPRLPRPRPRPMKDPRP,-0.157
17,RRIRPRPPRLPRPRPRPREMPRP,0.319
18,RRIRLRPPRLPRPRPRPLDYPRP,-0.157
19,RRIRRRPPRLPRPRPRPWLFPRP,0.383
20,RRIRPRPPRLPRPRPRPLFLPRP,-0.0037
21,RRIRTRPPRLPRPRPRPLRNPRP,-0.0969
22,RRIRRRPPRLPRPRPRPNDKPRP,-0.178

row,Sequence,shrunken log2 fold change
1,RRIRTRPPRLPRPRPRPCCYPRP,-0.43
2,RRIRFRPPRLPRPRPRPRIAPRP,0.214
3,RRIRSRPPRLPRPRPRPNSLPRP,-0.165
4,RRIRIRPPRLPRPRPRPVFTPRP,-0.305
5,RRIRFRPPRLPRPRPRPCLLPRP,-1.19
6,RRIRYRPPRLPRPRPRPWDAPRP,-0.796
7,RRIRCRPPRLPRPRPRPCVFPRP,-0.0388
8,RRIRLRPPRLPRPRPRPDHLPRP,-0.0674
9,RRIRERPPRLPRPRPRPTRPPRP,0.461
10,RRIRKRPPRLPRPRPRPPVFPRP,-0.00134
11,RRIRRRPPRLPRPRPRPYAPPRP,-0.0565
12,RRIRERPPRLPRPRPRPNTEPRP,0.0956
13,RRIRHRPPRLPRPRPRPVYGPRP,-0.528
14,RRIRIRPPRLPRPRPRPNECPRP,-0.0258
15,RRIRVRPPRLPRPRPRPKQKPRP,-0.0521
16,RRIRCRPPRLPRPRPRPMSYPRP,-0.23
17,RRIRQRPPRLPRPRPRPERFPRP,-0.0441
18,RRIRRRPPRLPRPRPRPIVKPRP,-0.0348
19,RRIRLRPPRLPRPRPRPVYVPRP,-0.367
20,RRIRIRPPRLPRPRPRPPWIPRP,-0.173
21,RRIRGRPPRLPRPRPRPCRPPRP,-0.04
